Measured values: patent US20160208003A1 (AFFITECH RESEARCH, published 2016)
Where two headings read alike, the source gives them in different places.

Key:
[1] = target: T1, human CC chemokine receptor 4 (CCR4) (human, UniProt P51679 1-360); experiment: flow cytometry, saturation titration of scFv cross-linked via myc-tag on DT-40 CCR4+ cells; one site-specific binding fit
T1 construct: whole, on cells; Always presented on cells; also called CD194; human CCR4
T1 sequence (looked up): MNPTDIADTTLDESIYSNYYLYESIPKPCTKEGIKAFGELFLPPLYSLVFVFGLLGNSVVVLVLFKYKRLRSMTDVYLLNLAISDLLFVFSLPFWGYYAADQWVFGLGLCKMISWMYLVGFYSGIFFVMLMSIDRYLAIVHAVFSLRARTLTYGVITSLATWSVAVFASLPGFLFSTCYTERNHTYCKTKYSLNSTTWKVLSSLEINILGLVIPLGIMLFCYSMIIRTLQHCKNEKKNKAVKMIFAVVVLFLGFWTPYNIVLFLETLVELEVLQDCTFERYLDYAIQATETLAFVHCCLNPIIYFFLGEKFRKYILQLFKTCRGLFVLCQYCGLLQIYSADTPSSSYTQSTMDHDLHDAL
Protocol: DT 40 and CCRF-CEM cells were cultured as described in Example 2. The DT40 CCR4+ and DT40 (CCR4−) cells were harvested from culture flasks, washed 2 times with PBS (400×g, 5 min, 4° C.) and resuspended in PBS containing 0.2% BSA and 0.09% NaN₃. 1×10⁵ cells per well were aliquoted into V-shaped 96-well plates (Greiner Bio-One, Frikenhausen, Germany). […] […] Cells were washed, resuspended in 200 μl PBS with 0.2% BSA and 0.09% NaN₃, and transferred to a U-shaped 96 well Costar (Corning, Schiphol-Rijik, The Netherlands) plate for flow cytometry using an Easy Cyte device (Guava Technologies, Hayward, Calif., USA).

[2] = target: T1, human CC chemokine receptor 4 (CCR4); experiment: cell-based or functional assay
[3] = target: T1, human CC chemokine receptor 4 (CCR4); experiment: cell-based or functional assay; remark: listed apart in the source
[4] = target: T1, human CC chemokine receptor 4 (CCR4); experiment: cell-based or functional assay; remark: listed apart in the source
[5] = target: T1, human CC chemokine receptor 4 (CCR4); experiment: flow cytometry, IgG titration on CCR4+ DT40 cells; one site-specific binding fit (Prism); IgG titration on CCR4+ DT40 cells
Protocol: (§1) The IgG forms of antibodies 17G, 9E and KM3060var using various CCR4⁺ cell types were used (see Example 2).
(§2) For the flow cytometry experiments, the cells were harvested from the culture flasks, washed 2 times with PBS, re-suspended in PBS with 0.2% BSA and 0.09% NaN₃ and finally aliquoted 1×10⁵ cells per well into V-shaped 96-well plates (Greiner Bio-One, Frickenhausen, Germany). Cells were centrifuged at 400×g for 5 min and then incubated at 4° C. for 45 min with different antibody dilutions.
(§3) After washing with PBS with 0.2% BSA and 0.09% NaN₃, the cells were stained with 10 μg/ml of RPE-conjugated goat anti-human IgG (AbDSerotec, Düsseldorf, Germany) for 30 minutes at 4° C. The stained cells were washed, re-suspended in 200 μl PBS with 0.2% BSA and 0.09% NaN₃ and transferred to a U-shaped 96-well plate (Corning, Schiphol-Rijk, The Netherlands) for acquisition on EasyCyte flow cytometer (Guava Technologies, Hayward, Calif., USA).

[6] = target: T1, human CC chemokine receptor 4 (CCR4); experiment: flow cytometry, IgG titration on CCR4+ HEK293T cells; one site-specific binding fit (Prism); IgG titration on CCR4+ HEK293T cells
Protocol: as §1, §2, §3

[7] = target: T1, human CC chemokine receptor 4 (CCR4); experiment: flow cytometry, IgG titration on CCRF-CEM cells; one site-specific binding fit (Prism); IgG titration on CCRF-CEM cells (natural CCR4+ line)
Protocol: as §1, §2, §3

[8] = target: T1, human CC chemokine receptor 4 (CCR4); experiment: competition flow cytometry on CCR4-transfected DT40 cells: unlabelled IgG against 6.8 nM biotinylated KM3060var IgG, streptavidin-RPE
Protocol: To analyze the epitope binding of anti-CCR4 antibodies 17G, 9E and KM3060var, competition experiments were performed using flow cytometry. The binding of biotinylated antibodies to CCR4 transfected DT40-cells was challenged in the presence of different concentrations of non-biotinylated anti-CCR4 antibodies. The CCR4⁺ DT40 cells were harvested from culture flasks, washed 2 times with PBS, re-suspended in PBS with 0.2% BSA and 0.09% NaN₃ and finally aliquoted 1×10⁵ cells per well into V-shaped 96-well plates (Greiner Bio-One, Frickenhausen, Germany). Cells were centrifuged at 400×g for 5 min and then incubated at 4° C. for 3-4 hours with fixed amounts of biotinylated IgG and different concentrations of non-biotinylated antibodies. After washing with PBS with 0.2% BSA and 0.09% NaN₃, the cells were stained with 2.5 μg/ml of Streptavidin—RPE (BD Pharmingen, San Diego, Calif., USA) for 30 minutes at 4° C. The stained cells were washed, re-suspended in 250 μl PBS with 0.2% BSA and 0.09% NaN₃ and transferred to a U-shaped 96-well plate (Corning, Schiphol-Rijk, The Netherlands) for acquisition on EasyCyte flow cytometer (Guava Technologies, Hayward, Calif., USA). The results shown in FIGS. 10 A, B and C illustrate that the 17G and 9E antibodies have epitopes that are identical or at least overlapping.

[9] = target: T1, human CC chemokine receptor 4 (CCR4); experiment: flow cytometry, IgG titration on CCR4+ DT40 cells (2); one site-specific binding fit (Prism); IgG titration on CCR4+ DT40 cells, second experiment, DT40 (2)
Protocol: as §1, §2, §3

[10] = target: T1, human CC chemokine receptor 4 (CCR4); experiment: competition flow cytometry on CCRF-CEM cells: unlabelled competitor against ca. 20 nM biotinylated MDC, streptavidin-PE [d]
Protocol: The competition binding assays were performed with biotinylated MDC or biotinylated TARC on DT-40-CCR4+ and CCRF-CEM cells. DT40 and CCRF-CEM cells were cultured as described in Example 2. TARC and MDC were biotinylated using standard procedures. The biotinylation process causes some losses, so the concentrations of biotinylated MDC and TARC recited herein are approximate.
The cells were harvested from culture flasks, washed 2 times with PBS (400×g, 5 min, 4° C.) and resuspended in PBS containing 0.2% BSA and 0.09% NaN3. 1×10^5 cells per well were aliquoted into V-shaped 96-well plates (Greiner Bio-One, Frikenhausen, Germany). Cells were centrifuged (400×g, 5 min, 4° C.) and resuspended in 50 μl IgG, single chain or unlabeled ligand (1:10 dilution series starting on 100/500/26, 4 μg/ml) mixed with a fixed concentration of biotinylated ligand (10 or 20 nM, see legend to FIG. 24). The cells were incubated for 2 hours at 4° C. and mixed with a pipette every 45 min. The cells were washed three times with 150 μl PBS with 0.2% BSA and 0.09% NaN3 and stained with 3 μg/ml streptavidin PE (BD Biosciences) for 45 minutes at 4° C. […] Apparent binding affinities (KD) were calculated according to the following equation derived from previously described methods (Kipriyanov et al, 1997b; Schodin & Kranz, 1993): […]

[11] = target: T1, human CC chemokine receptor 4 (CCR4); experiment: IgG1 expressed from pLNO, purified; method not told there
[12] = target: T1, human CC chemokine receptor 4 (CCR4); experiment: flow cytometry, IgG titration on DT-40 CCR4+ cells, anti-human-FITC, MFI [a]
Protocol: The quality of the specific binding to DT40+ cells was tested for 9E1 D and 9E10J in scFv or IgG format in a titration experiment.
Alternatively, 9E1D and 9E10J were converted into the full-length human IgG1 and tested for cell binding. The DT40+CCR4 and DT40 cells were harvested from culture flasks, washed 2 times with PBS (400×g, 5 min, 4° C.) and resuspended in PBS containing 0.2% BSA and 0.09% NaN₃. 1×10⁵ cells per well were aliquoted into V-shaped 96-well plates (Greiner Bio-One, Frikenhausen, Germany). Cells were centrifuged (400×g, 5 min, 4° C.) and resuspended in a 1:5 dilution series of IgG starting on 10 μg/ml (50 μl/well). After 1 hour incubation at 4° C., the cells were washed three times with 150 μl PBS with 0.2% BSA and 0.09% NaN₃ and stained with 2.5 μg/ml RPE conjugated goat anti-human IgG (AbDSerotec, Düsseldorf, Germany) or 2.5 μg/ml anti human IgG Fc (goat polyclonal aff. pur) FITC (Sigma Aldrich) for 45 minutes at 4° C. Cells were washed, resuspended in 200 μl PBS with 0.2% BSA and 0.09% NaN₃, and transferred to a U-shaped 96 well Costar (Corning, Schiphol-Rijik, The Netherlands) plate for flow cytometry using an Easy Cyte device (Guava Technologies, Hayward, Calif., USA) or FACS Canto II flow cytometer (BD Biosciences, Heidelberg, Germany).

B1: 9E1D scFv (scFv)
scFv: QVQLVQSGAEVKKPGSSVKVSCKASGGTFSNYAISWVRQAPGQGLEWMGGIIPIFGTANYAQKFQGRVTITADESTSTAYMELSSLRSEDTAVYYCARRGGSYFDYWGQGTLVTVSSKLSGSASAPKLEEGEFSEARVQPVLTQPPSASGTPGQRVTISCSGGGSNIGRRFVNWYQQLPGTAPKLLIYRNNQRPSGVPDRFSGSKSGTSASLVISGLRSEDEADYYCAAWDDSLSGWVFGGGTKLTVLAAAGSEQKLISEEDLNSHHHHHH
notes: also called scFv 9E1D
Kd [1]: 5.22 nM

B2: KM3060var IgG (antibody, V domains shown)
VH: EVQLVESGGDLMKPGGSLKISCAASGFIFSNYGMSWVRQTPDMRLEWVATISSASTYSYYPDSVKGRFTISRDNAENSLYLQMNSLRSEDTGIYYCGRHSDGNFAFGYWGRGTLVTVSS
VL: DVLMTQTPLSLPVSLGDQASISCRSSRNIVHINGDTYLEWYLQRPGQSPKLLIYKVSNRFSGVPDRFSGSGSGTDFTLKISRVEAEDLGVYYCFQGSLLPWTFGGGTRLEIK
notes: Corresponds to KM3060 expressed in a different host; also called comparator KM3060var
Ca++ flux in CCRF-CEM cells: signal response to MDC stimulation (% of MDC in the absence of IgGs), IgG 10 µg/mL [2]: 92% | Ca++ flux in CCRF-CEM cells: signal response to TARC stimulation (% of TARC alone), IgG 10 µg/mL [2]: 104% | ADCC of CCRF-CEM cells, EC50 (mean, N=3) [3]: 0.367 µg/mL | ADCC of CCRF-CEM cells, EC50 (mean, N=3) [4]: 0.405 µg/mL | Kd [5]: 3.67 nM | Kd [6]: 11.4 nM | Kd [7]: 79.8 nM | IC50 (read off the curve) [8]: ~6 nM | Kd [9]: 4.82 nM

B3: 9E scFv (scFv)
scFv: QVQLVQSGAEVKKPGSSVKVSCKASGGTFSNYAISWVRQAPGQGLEWMGGIIPIFGTANYAQKFQGRVTITADESTSTAYMELSSLRSEDTAVYYCARRGGSYFDYWGQGTLVTVSSKLSGSASAPKLEEGEFSEARVSYVLTQPPSASGTPGQSVTISCSGSTSNIGSHYVFWYQQLPGTAPRLLIYRNHQRPSGVPDRLSGSKSGTSASLAISGLRSEDEADYYCAVWDDTLSGWVFGGGTKLTVLAAAGSEQKLISEEDLNSHHHHHH
notes: For staining the scFv was pre-incubated with an anti-c-myc antibody with human Fc (cross-linked, dimer-like); also called scFv 9E
Kd [1]: 4.95 nM

B4: 9E10J scFv (scFv)
scFv: QVQLVQSGAEVKKPGSSVKVSCKASGGTFSSYAISWVRQAPGQGLEWMGGIIPIFGTANYAQKFQGRVTMTRDTSTSTVYMELSSLRSEDTAVYYCARRGGSYFDYWGQGTLVTVSSKLSGSASAPKLEEGEFSEARVSYVLTQPPSASGTPGQSVTISCSGSTSNIGSHYVFWYQQLPGTAPRLLIYRNHQRPSGVPDRLSGSKSGTSASLAISGLRSEDEADYYCAVWDDTLSGWVFGGGTKLTVLAAAGSEQKLISEEDLNSHHHHHH
notes: also called scFv 9E10J
Kd [1]: 1.17 nM | IC50 (read off the curve) [10]: ~200 nM

B5: 11F IgG (full length human IgG1, kappa) (antibody, V domains shown)
VH: not shown
VL: ETTLTQSPGTLSLSPGEGVTLSCRASQSVNRRYLAWYQQKPGQAPRLLIYGASSRATGIPDRFSGSGSGTDFTLTISRLEPEDFAVYYCQQYGSSPLTFGGGTKVEIKR
binding result [11]: binds

B6: defucosylated 9E10J IgG (antibody, V domains shown)
VH: QVQLVQSGAEVKKPGSSVKVSCKASGGTFSSYAISWVRQAPGQGLEWMGGIIPIFGTANYAQKFQGRVTMTRDTSTSTVYMELSSLRSEDTAVYYCARRGGSYFDYWGQGTLVTVSS
VL: SYVLTQPPSASGTPGQSVTISCSGSTSNIGSHYVFWYQQLPGTAPRLLIYRNHQRPSGVPDRLSGSKSGTSASLAISGLRSEDEADYYCAVWDDTLSGWVFGGGTKLTVLG
modifications: Fc glycans defucosylated (IgG produced in the presence of Kifunensine, 100 ng/ml)
ADCC of CCRF-CEM cells, EC50 (mean, N=4) [4]: 0.0021 µg/mL

B7: 9E1D IgG (full length human IgG1, lambda) (antibody, V domains shown)
VH: QVQLVQSGAEVKKPGSSVKVSCKASGGTFSNYAISWVRQAPGQGLEWMGGIIPIFGTANYAQKFQGRVTITADESTSTAYMELSSLRSEDTAVYYCARRGGSYFDYWGQGTLVTVSS
VL: QPVLTQPPSASGTPGQRVTISCSGGGSNIGRRFVNWYQQLPGTAPKLLIYRNNQRPSGVPDRFSGSKSGTSASLVISGLRSEDEADYYCAAWDDSLSGWVFGGGTKLTVLG
binding result [12]: binds
